The text below walks through data of US20160272683A1 (Novo Nordisk, published 2016).

Numbered stars: 1 amine (or outer) side, 2 acyl side, 3 side chain; on linkers, the order of the positions; unused ones are H or OH. * marks the point of attachment. C20 diacid = O=C(O)CCCCCCCCCCCCCCCCCCC(=O)*; γGlu = O=C(O)[C@H](CCC(=O)[*:2])N[*:1]

T1: human amylin 3(a) receptor (human calcitonin receptor co-expressed with RAMP-3) (human, UniProt P30988 25-474; O60896 24-148, limits assumed)
T1 sequence (looked up) 1: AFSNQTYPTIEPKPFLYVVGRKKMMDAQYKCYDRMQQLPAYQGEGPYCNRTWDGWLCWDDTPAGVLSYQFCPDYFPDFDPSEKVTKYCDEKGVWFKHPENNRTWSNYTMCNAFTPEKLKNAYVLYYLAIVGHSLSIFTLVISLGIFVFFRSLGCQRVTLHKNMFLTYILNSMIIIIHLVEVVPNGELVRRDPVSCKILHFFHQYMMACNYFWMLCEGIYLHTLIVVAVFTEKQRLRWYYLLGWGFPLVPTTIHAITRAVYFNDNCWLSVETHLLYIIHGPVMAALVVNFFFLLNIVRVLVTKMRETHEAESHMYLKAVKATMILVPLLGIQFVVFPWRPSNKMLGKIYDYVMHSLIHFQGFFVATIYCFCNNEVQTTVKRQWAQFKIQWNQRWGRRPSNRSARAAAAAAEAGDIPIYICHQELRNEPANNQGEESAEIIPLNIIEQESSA
T1 sequence (looked up) 2: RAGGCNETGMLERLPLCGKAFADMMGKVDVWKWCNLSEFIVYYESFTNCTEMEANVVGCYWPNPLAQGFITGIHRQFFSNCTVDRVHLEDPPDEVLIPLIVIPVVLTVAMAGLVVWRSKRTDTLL

T2: human calcitonin receptor (human, UniProt P30988 25-474)
T2 sequence (looked up): T1 sequence (looked up) 1

B1: [N-terminal(C20 diacid-gGlu), des1, 30S, 31G, 33H]mimylin (peptide)
peptide: {C20 diacid-γGlu}-ASELSTAALGRLSAELHELATLPRTETGSGSH-NH2
SMILES: CC(C)C[C@H](NC(=O)[C@H](C)NC(=O)[C@H](C)NC(=O)[C@@H](NC(=O)[C@H](CO)NC(=O)[C@H](CC(C)C)NC(=O)[C@H](CCC(=O)O)NC(=O)[C@H](CO)NC(=O)[C@H](C)NC(=O)CC[C@H](NC(=O)CCCCCCCCCCCCCCCCCCC(=O)O)C(=O)O)[C@@H](C)O)C(=O)NCC(=O)N[C@@H](CCCNC(=N)N)C(=O)N[C@@H](CC(C)C)C(=O)N[C@@H](CO)C(=O)N[C@@H](C)C(=O)N[C@@H](CCC(=O)O)C(=O)N[C@@H](CC(C)C)C(=O)N[C@@H](Cc1c[nH]cn1)C(=O)N[C@@H](CCC(=O)O)C(=O)N[C@@H](CC(C)C)C(=O)N[C@@H](C)C(=O)N[C@H](C(=O)N[C@@H](CC(C)C)C(=O)N1CCC[C@H]1C(=O)N[C@@H](CCCNC(=N)N)C(=O)N[C@H](C(=O)N[C@@H](CCC(=O)O)C(=O)N[C@H](C(=O)NCC(=O)N[C@@H](CO)C(=O)NCC(=O)N[C@@H](CO)C(=O)N[C@@H](Cc1c[nH]cn1)C(N)=O)[C@@H](C)O)[C@@H](C)O)[C@@H](C)O
B2: [N-terminal(C20 diacid-gGlu), des1, 30S, 31G, 33Y]mimylin (peptide)
peptide: {C20 diacid-γGlu}-ASELSTAALGRLSAELHELATLPRTETGSGSY-NH2
SMILES: CC(C)C[C@H](NC(=O)[C@H](C)NC(=O)[C@H](C)NC(=O)[C@@H](NC(=O)[C@H](CO)NC(=O)[C@H](CC(C)C)NC(=O)[C@H](CCC(=O)O)NC(=O)[C@H](CO)NC(=O)[C@H](C)NC(=O)CC[C@H](NC(=O)CCCCCCCCCCCCCCCCCCC(=O)O)C(=O)O)[C@@H](C)O)C(=O)NCC(=O)N[C@@H](CCCNC(=N)N)C(=O)N[C@@H](CC(C)C)C(=O)N[C@@H](CO)C(=O)N[C@@H](C)C(=O)N[C@@H](CCC(=O)O)C(=O)N[C@@H](CC(C)C)C(=O)N[C@@H](Cc1c[nH]cn1)C(=O)N[C@@H](CCC(=O)O)C(=O)N[C@@H](CC(C)C)C(=O)N[C@@H](C)C(=O)N[C@H](C(=O)N[C@@H](CC(C)C)C(=O)N1CCC[C@H]1C(=O)N[C@@H](CCCNC(=N)N)C(=O)N[C@H](C(=O)N[C@@H](CCC(=O)O)C(=O)N[C@H](C(=O)NCC(=O)N[C@@H](CO)C(=O)NCC(=O)N[C@@H](CO)C(=O)N[C@@H](Cc1ccc(O)cc1)C(N)=O)[C@@H](C)O)[C@@H](C)O)[C@@H](C)O
B3: [N-terminal(C20 diacid-gGlu), des1, 30S, 31G, 33F]mimylin (peptide)
peptide: {C20 diacid-γGlu}-ASELSTAALGRLSAELHELATLPRTETGSGSF-NH2
SMILES: CC(C)C[C@H](NC(=O)[C@H](C)NC(=O)[C@H](C)NC(=O)[C@@H](NC(=O)[C@H](CO)NC(=O)[C@H](CC(C)C)NC(=O)[C@H](CCC(=O)O)NC(=O)[C@H](CO)NC(=O)[C@H](C)NC(=O)CC[C@H](NC(=O)CCCCCCCCCCCCCCCCCCC(=O)O)C(=O)O)[C@@H](C)O)C(=O)NCC(=O)N[C@@H](CCCNC(=N)N)C(=O)N[C@@H](CC(C)C)C(=O)N[C@@H](CO)C(=O)N[C@@H](C)C(=O)N[C@@H](CCC(=O)O)C(=O)N[C@@H](CC(C)C)C(=O)N[C@@H](Cc1c[nH]cn1)C(=O)N[C@@H](CCC(=O)O)C(=O)N[C@@H](CC(C)C)C(=O)N[C@@H](C)C(=O)N[C@H](C(=O)N[C@@H](CC(C)C)C(=O)N1CCC[C@H]1C(=O)N[C@@H](CCCNC(=N)N)C(=O)N[C@H](C(=O)N[C@@H](CCC(=O)O)C(=O)N[C@H](C(=O)NCC(=O)N[C@@H](CO)C(=O)NCC(=O)N[C@@H](CO)C(=O)N[C@@H](Cc1ccccc1)C(N)=O)[C@@H](C)O)[C@@H](C)O)[C@@H](C)O

The first experiment concerns the target T1, human amylin 3(a) receptor (human …). Put plainly: cell-based or functional assay.
Consider B1, for which the “hAmylin-R funct. EC50 (pM)” value came to 53 pM.

On to B2, for which the “hAmylin-R funct. EC50 (pM)” value is 46 pM.

On to B3, for which the “hAmylin-R funct. EC50 (pM)” value turned out to be 50 pM.

A further experiment concerns the target T2, human calcitonin receptor. Put plainly: cell-based or functional assay.
For B1, the “hCTR funct. EC50 (pM)” value was found to be 48 pM.

As to B2, the “hCTR funct. EC50 (pM)” value stood at 37 pM.

For B3, the “hCTR funct. EC50 (pM)” value turned out to be 40 pM.
